We go through three molecules from publication PMC12346409, “Amphiphilic Oligonucleotide Derivatives as a Tool to Study DNA Repair Proteins”.

The target in one data set is PARP2 (human, UniProt Q9UGN5 1-583). Description: photo-cross-linking; no NAD+; 200 nM PARP2, 100 nM DNA; EMSA: 50 mM Tris-HCl pH 8.0, 20 mM NaCl, 0.25 mM EDTA, 5% glycerol, 0.025% NP-40, 37 °C 20 min; 8% PAAG, 0.5x TBE, 10 °C. As to conditions: protein: recombinant; label: 5'-32P; 5' overhang 4 nt on strand 1; other end blunt.
For data set [1], the target named is T1, PARP1 (human, UniProt P09874 1-1014). Nature of the data set: photo-cross-linking; no NAD+; 200 nM PARP1, 100 nM DNA; EMSA: 50 mM Tris-HCl pH 8.0, 20 mM NaCl, 0.25 mM EDTA, 5% glycerol, 0.025% NP-40, 37 °C 20 min; 8% PAAG, 0.5x TBE, 10 °C. Particulars: protein: recombinant; label: 5'-32P; 5' overhang 4 nt on strand 1; other end blunt. (In EMSA bound probe runs differently from free probe, usually more slowly.)

The target in the next data set is T2, PARP3 (UniProt Q9Y6F1 1-533).
T2 sequence: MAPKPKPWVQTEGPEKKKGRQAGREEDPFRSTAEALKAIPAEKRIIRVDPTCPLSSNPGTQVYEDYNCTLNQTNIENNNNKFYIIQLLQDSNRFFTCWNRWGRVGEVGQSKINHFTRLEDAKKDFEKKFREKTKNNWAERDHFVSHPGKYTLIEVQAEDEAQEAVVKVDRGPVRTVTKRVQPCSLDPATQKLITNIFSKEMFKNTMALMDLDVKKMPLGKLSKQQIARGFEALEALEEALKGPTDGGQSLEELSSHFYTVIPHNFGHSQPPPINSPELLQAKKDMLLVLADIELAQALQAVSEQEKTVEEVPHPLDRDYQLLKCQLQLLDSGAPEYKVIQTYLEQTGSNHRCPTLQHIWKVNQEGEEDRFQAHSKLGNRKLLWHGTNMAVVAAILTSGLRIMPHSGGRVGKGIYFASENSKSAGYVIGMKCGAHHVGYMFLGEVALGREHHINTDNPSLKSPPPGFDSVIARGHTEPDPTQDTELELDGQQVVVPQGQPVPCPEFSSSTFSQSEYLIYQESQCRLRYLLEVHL
Nature of the data set: EMSA; 10 nM DNA, up to 10-fold PARP3 excess; EMSA: 50 mM Tris-HCl pH 8.0, 20 mM NaCl, 0.25 mM EDTA, 5% glycerol, 0.025% NP-40, 37 °C 20 min; 8% PAAG, 0.5x TBE, 10 °C. Particulars: protein: recombinant; label: 5'-32P on O1-Pho strand; 5' overhang 5 nt on strand 1 as printed; other end blunt.

Data set [2] addresses T1, PARP1. Description: photo-cross-linking; 100 nM DNA, 100 nM protein; EMSA: 50 mM Tris-HCl pH 8.0, 20 mM NaCl, 0.25 mM EDTA, 5% glycerol, 0.025% NP-40, 37 °C 20 min; 8% PAAG, 0.5x TBE, 10 °C. As to conditions: protein: recombinant; nicked duplex, blunt ends, strands 1 and 2 paired to strand 3.
A further data set addresses Ku antigen (Ku70/Ku80) (UniProt P12956;P13010 1-609;1-732). Description: photo-cross-linking; 100 nM DNA, 100 nM protein; Ku70 and Ku80 labelled; EMSA: 50 mM Tris-HCl pH 8.0, 20 mM NaCl, 0.25 mM EDTA, 5% glycerol, 0.025% NP-40, 37 °C 20 min; 8% PAAG, 0.5x TBE, 10 °C. Particulars: copies: 1;1; nicked duplex, blunt ends, strands 1 and 2 paired to strand 3.

T1 sequence (P09874 whole entry): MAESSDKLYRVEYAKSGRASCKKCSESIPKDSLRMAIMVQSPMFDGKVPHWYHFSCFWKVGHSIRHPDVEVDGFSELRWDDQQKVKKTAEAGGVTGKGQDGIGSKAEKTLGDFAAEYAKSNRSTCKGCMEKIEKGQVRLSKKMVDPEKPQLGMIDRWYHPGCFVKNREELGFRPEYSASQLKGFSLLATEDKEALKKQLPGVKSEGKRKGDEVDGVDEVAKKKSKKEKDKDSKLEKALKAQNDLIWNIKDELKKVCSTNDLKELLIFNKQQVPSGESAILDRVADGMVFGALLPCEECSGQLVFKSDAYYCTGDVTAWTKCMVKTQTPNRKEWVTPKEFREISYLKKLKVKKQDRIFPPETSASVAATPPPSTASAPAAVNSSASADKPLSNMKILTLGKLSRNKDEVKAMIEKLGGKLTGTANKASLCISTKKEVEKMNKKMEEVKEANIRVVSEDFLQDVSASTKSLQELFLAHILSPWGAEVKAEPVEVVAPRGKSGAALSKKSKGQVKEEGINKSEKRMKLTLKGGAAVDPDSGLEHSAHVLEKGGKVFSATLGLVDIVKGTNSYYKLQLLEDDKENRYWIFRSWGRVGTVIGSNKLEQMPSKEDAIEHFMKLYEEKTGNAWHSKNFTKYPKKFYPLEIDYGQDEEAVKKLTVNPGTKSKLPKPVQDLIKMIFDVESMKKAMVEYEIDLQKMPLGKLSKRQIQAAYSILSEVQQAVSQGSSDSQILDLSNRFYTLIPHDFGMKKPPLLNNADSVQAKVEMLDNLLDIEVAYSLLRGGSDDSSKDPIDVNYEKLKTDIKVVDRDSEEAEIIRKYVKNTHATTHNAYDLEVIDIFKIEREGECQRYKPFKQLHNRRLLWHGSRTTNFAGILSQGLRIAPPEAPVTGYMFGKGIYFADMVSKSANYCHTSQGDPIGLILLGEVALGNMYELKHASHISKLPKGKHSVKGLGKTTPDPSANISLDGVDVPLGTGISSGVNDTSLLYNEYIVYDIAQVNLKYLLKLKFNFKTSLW
Ku antigen (Ku70/Ku80), sequence (P12956 whole entry, chain 1 of 2): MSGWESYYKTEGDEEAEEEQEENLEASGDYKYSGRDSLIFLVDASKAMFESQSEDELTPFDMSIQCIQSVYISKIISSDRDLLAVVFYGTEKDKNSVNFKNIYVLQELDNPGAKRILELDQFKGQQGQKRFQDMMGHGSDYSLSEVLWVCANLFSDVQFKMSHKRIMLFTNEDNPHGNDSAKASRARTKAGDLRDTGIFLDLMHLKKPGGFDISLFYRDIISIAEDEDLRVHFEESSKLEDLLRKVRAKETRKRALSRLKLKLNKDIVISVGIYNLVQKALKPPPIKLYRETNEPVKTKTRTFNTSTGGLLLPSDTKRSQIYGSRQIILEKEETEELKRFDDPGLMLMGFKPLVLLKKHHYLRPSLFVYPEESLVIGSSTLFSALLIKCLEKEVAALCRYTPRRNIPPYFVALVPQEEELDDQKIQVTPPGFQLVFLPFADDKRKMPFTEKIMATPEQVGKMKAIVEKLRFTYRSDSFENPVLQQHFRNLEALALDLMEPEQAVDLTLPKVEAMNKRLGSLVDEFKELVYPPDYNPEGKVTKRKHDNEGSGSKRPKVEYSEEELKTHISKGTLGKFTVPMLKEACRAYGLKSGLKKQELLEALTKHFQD
Ku antigen (Ku70/Ku80), sequence (P13010 whole entry, chain 2 of 2): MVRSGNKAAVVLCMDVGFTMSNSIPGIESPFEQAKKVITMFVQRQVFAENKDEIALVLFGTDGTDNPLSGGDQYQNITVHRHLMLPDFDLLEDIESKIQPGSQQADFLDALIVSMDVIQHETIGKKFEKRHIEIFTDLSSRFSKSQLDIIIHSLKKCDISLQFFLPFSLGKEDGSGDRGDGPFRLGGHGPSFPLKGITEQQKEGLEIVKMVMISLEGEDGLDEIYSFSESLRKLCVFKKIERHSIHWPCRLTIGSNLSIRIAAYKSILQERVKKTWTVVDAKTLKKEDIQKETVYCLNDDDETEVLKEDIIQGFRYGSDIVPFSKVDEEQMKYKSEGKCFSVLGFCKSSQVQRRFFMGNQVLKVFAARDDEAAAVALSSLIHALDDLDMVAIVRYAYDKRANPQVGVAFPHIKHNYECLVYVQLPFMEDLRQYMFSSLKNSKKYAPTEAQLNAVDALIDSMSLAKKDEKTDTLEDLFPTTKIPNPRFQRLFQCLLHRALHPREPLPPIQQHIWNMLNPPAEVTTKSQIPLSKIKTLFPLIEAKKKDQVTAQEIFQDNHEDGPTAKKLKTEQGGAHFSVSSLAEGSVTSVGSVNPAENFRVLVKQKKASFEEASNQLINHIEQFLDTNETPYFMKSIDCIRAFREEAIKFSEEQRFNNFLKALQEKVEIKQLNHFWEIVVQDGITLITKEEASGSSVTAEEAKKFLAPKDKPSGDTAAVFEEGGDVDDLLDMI
PARP2, sequence (Q9UGN5 whole entry): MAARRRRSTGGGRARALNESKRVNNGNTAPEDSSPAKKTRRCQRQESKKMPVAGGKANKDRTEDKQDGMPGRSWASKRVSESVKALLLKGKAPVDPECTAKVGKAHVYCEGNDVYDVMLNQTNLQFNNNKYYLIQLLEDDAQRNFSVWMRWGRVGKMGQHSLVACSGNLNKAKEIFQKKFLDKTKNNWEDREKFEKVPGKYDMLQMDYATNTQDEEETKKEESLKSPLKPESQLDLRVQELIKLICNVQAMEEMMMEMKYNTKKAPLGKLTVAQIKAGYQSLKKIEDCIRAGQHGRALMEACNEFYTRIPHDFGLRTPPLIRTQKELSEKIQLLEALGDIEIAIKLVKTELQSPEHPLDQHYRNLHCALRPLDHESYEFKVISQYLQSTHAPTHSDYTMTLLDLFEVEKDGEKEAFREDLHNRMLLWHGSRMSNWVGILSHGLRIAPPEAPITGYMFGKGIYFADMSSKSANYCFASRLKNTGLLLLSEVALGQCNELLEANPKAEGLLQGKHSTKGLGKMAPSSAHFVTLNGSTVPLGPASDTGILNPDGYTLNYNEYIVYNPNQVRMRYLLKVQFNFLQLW

B1: Pho-DNA-R (dsDNA)
DNA 1: TCCTGACATACTTGATACTTAGACATTCTT
DNA 2: AAGAATGTCTAAGTATCAAGTATGTC
modifications: 3'-terminal FAP-dCMP (photoactivatable C) on strand 2
With B1, the binding result with PARP2 and with PARP1 [1] was “binds” each time.

B2: DNA-R (EMSA, O-R/O1-Pho) (dsDNA)
DNA 1: TCCTGACATACTTGATACTTAGACATTCTT
DNA 2: AAGAATGTCTAAGTATCAAGTATGT
In the case of B2, in the data set with PARP3, the binding result is on record as “no binding”.

B3: Pho-dRP (dsDNA)
DNA 1: GGCGACTAAGCCGGGC
DNA 2: AACGCCAGGGCCTCCC
DNA 3: GGGAGGCCCTGGCGTTGCCCGGCTTAGTCGCC
modifications: 3'-terminal FAP-dCMP on strand 1; 5'-dRP on strand 2
Take B3: the binding result in the data set with PARP1 [2] and with Ku antigen (Ku70/Ku80) was “binds” throughout.
